Measurements reported in paper PMC3276558, “The B-Cell Specific Transcription Factor, Oct-2, Promotes Epstein-Barr Virus Latency by Inhibiting the Viral Immediate-Early Protein, BZLF1”.

Target: Oct-2 Q221A (UniProt P09086 1-479, Q221A)
Assay: EMSA; EMSA with in vitro-translated protein and 32P-labelled annealed ds oligonucleotide; buffer, salt, pH and temperature not given in the material
Conditions: protein: ivt; label: 32P (T4 PNK, 5' end); blunt

Sequence of Oct-2 Q221A (P09086 whole entry Q221A): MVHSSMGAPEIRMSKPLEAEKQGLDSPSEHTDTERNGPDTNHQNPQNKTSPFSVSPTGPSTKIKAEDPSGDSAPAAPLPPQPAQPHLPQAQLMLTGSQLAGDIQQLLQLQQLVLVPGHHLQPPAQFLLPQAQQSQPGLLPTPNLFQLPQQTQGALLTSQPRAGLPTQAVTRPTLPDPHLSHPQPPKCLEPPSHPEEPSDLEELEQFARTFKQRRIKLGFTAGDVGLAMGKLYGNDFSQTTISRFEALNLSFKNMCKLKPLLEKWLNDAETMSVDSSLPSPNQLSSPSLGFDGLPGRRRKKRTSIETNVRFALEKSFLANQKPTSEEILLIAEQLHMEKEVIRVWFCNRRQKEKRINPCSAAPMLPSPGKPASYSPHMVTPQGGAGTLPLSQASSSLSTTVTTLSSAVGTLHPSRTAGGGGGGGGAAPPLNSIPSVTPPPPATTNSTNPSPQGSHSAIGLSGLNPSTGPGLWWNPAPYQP

B1: Oct probe (dsDNA)
DNA 1: CAGTGATGCAAATCTTGT
DNA 2: ACAAGATTTGCATCACTG
binding result: no binding
